Data published in PMC5097833 (Chemico-biological interactions, 2015).

B1: mouse anti-human BChE monoclonal antibody B2 12-1 (antibody, V domains shown)
VH: EVQLQQSGPELVKPGASVKISCKASGYTFTDYSMHWVKLSHGKSLEWIGYIYPYNDDTDYNQKFKTKATLTVDSSSSITYLELRSLTSEDSAVYYCARSDGYSYYFDYWGQGTTLTVSS
VL: DIVMTQSPATLSVTPGDRVSLSCRASQSISDYLHWYQQKSHESPRLLIKYASQSISGIPSRFSGGGSGSDFTLSINSVEPEDVGVYYCQNGHRFPLTFGAGTKLELK
B2: mouse anti-human BChE monoclonal antibody 11D8 (antibody, V domains shown)
VH: QVQLQQSGAELARPGASVKLSCKASGYTFTSQWLQWVKQRPGQGLEWIGAIYPGDGDTRYTQKFKGKATLTADKSSSTAYMQLTNLAPEDSAVYYCARSSMDYWGQGTSVTVSS
VL: DILLTQSPAILSVSPGERVRLSCRASQSCGTSIYWYQQRTNGSPRLLIMYASEPFSGIPSRFSGSGSGTDFTLSINSVESEDIADYYCQQSNSWPWTFGGGTRLEIK

Molecular target: human butyrylcholinesterase (human (endogenous in plasma), UniProt P06276)
Sequence (P06276 29-602): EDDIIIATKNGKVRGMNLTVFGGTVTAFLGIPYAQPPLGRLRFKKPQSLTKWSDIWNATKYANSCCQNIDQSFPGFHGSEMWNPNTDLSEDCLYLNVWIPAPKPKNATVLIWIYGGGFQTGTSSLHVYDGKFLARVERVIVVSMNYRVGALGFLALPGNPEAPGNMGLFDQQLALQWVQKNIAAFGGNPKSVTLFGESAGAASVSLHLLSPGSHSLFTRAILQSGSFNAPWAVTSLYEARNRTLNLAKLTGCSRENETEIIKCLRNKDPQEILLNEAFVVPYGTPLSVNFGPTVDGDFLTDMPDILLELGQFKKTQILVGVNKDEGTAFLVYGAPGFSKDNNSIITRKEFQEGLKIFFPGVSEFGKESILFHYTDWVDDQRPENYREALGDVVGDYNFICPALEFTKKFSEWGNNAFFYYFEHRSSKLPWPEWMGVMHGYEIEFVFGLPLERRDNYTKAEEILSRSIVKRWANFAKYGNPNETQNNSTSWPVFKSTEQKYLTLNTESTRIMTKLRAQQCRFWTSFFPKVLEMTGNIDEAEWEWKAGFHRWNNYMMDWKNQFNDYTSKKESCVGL
Assay: pull-down

Binder | binding result
B1 | binds
B2 | binds
